# B1: I41S/F99L/C122S/G151N/Q175M/Q192G/D217V (enzyme)
# chain: VVGGTDADEGEWPWQVSLHALGQGHSCGASLISPNWLVSAAHCYIDDRGFRYSDPTQWTAFLGLHDQSQRSAPGVQERRLKRIISHPFFNDFTLDYDIALLELEKPAEYSSMVRPISLPDASHVFPAGKAIWVTGWGHTQYGGTNALILQKGEIRVINQTTCENLLPQMITPRMMCVGFLSGGVDSCGGDSGGPLSSVEADGRIFQAGVVSWGVGCAQRNKPGVYTRLPLFRDWIKENTGV
# B2: Q38H/I41A/D60bV/F60eR/Y60gW/F97D/F99L/C122S/G151H/Q175L/Q192D (enzyme)
# chain: VVGGTDADEGEWPWQVSLHALGHGHACGASLISPNWLVSAAHCYIDVRGRRWSDPTQWTAFLGLHDQSQRSAPGVQERRLKRIISHPFFNDDTLDYDIALLELEKPAEYSSMVRPISLPDASHVFPAGKAIWVTGWGHTQYGGTHALILQKGEIRVINQTTCENLLPQLITPRMMCVGFLSGGVDSCDGDSGGPLSSVEADGRIFQAGVVSWGDGCAQRNKPGVYTRLPLFRDWIKENTGV
# B3: Q38Y/I41S/D60bT/F60eR/Y60gW/D96M/T98G/F99L/C122S/G151N/Q175L/Q192D (enzyme)
# chain: VVGGTDADEGEWPWQVSLHALGYGHSCGASLISPNWLVSAAHCYIDTRGRRWSDPTQWTAFLGLHDQSQRSAPGVQERRLKRIISHPFFNMFGLDYDIALLELEKPAEYSSMVRPISLPDASHVFPAGKAIWVTGWGHTQYGGTNALILQKGEIRVINQTTCENLLPQLITPRMMCVGFLSGGVDSCDGDSGGPLSSVEADGRIFQAGVVSWGDGCAQRNKPGVYTRLPLFRDWIKENTGV
# B4: H40R/I41H/Y60gH/F97D/F99L/C122S/Q175M/Q192G/D217I/K224L (enzyme)
# chain: VVGGTDADEGEWPWQVSLHALGQGRHCGASLISPNWLVSAAHCYIDDRGFRHSDPTQWTAFLGLHDQSQRSAPGVQERRLKRIISHPFFNDDTLDYDIALLELEKPAEYSSMVRPISLPDASHVFPAGKAIWVTGWGHTQYGGTGALILQKGEIRVINQTTCENLLPQMITPRMMCVGFLSGGVDSCGGDSGGPLSSVEADGRIFQAGVVSWGIGCAQRNLPGVYTRLPLFRDWIKENTGV
# B5: Q38H/I41A/D60bV/F60eR/Y60gW/D96F/F97Y/ins97aN/T98G/F99M/C122S/G151N/Q175L/Q192G (enzyme)
# chain: VVGGTDADEGEWPWQVSLHALGHGHACGASLISPNWLVSAAHCYIDVRGRRWSDPTQWTAFLGLHDQSQRSAPGVQERRLKRIISHPFFNFYNGMDYDIALLELEKPAEYSSMVRPISLPDASHVFPAGKAIWVTGWGHTQYGGTNALILQKGEIRVINQTTCENLLPQLITPRMMCVGFLSGGVDSCGGDSGGPLSSVEADGRIFQAGVVSWGDGCAQRNKPGVYTRLPLFRDWIKENTGV
# B6: Q38H/I41A/D60bV/F60eR/Y60gW/D96F/F97S/ins97aH/T98G/F99L/C122S/G151N/Q175L/Q192G (enzyme)
# chain: VVGGTDADEGEWPWQVSLHALGHGHACGASLISPNWLVSAAHCYIDVRGRRWSDPTQWTAFLGLHDQSQRSAPGVQERRLKRIISHPFFNFSHGLDYDIALLELEKPAEYSSMVRPISLPDASHVFPAGKAIWVTGWGHTQYGGTNALILQKGEIRVINQTTCENLLPQLITPRMMCVGFLSGGVDSCGGDSGGPLSSVEADGRIFQAGVVSWGDGCAQRNKPGVYTRLPLFRDWIKENTGV
# B7: Q38H/I41S/D60bT/F60eS/Y60gW/D96Y/F97N/ins97aE/T98S/F99L/C122S/G151H/Q175L/Q192D (enzyme)
# chain: VVGGTDADEGEWPWQVSLHALGHGHSCGASLISPNWLVSAAHCYIDTRGSRWSDPTQWTAFLGLHDQSQRSAPGVQERRLKRIISHPFFNYNESLDYDIALLELEKPAEYSSMVRPISLPDASHVFPAGKAIWVTGWGHTQYGGTHALILQKGEIRVINQTTCENLLPQLITPRMMCVGFLSGGVDSCDGDSGGPLSSVEADGRIFQAGVVSWGDGCAQRNKPGVYTRLPLFRDWIKENTGV
# B8: Q38H/I41S/D60bT/F60eS/Y60gW/D96K/F97D/ins97aA/T98P/F99L/C122S/G151N/Q175L/Q192D (enzyme)
# chain: VVGGTDADEGEWPWQVSLHALGHGHSCGASLISPNWLVSAAHCYIDTRGSRWSDPTQWTAFLGLHDQSQRSAPGVQERRLKRIISHPFFNKDAPLDYDIALLELEKPAEYSSMVRPISLPDASHVFPAGKAIWVTGWGHTQYGGTNALILQKGEIRVINQTTCENLLPQLITPRMMCVGFLSGGVDSCDGDSGGPLSSVEADGRIFQAGVVSWGDGCAQRNKPGVYTRLPLFRDWIKENTGV
# B9: I41T/D60bW/F60eH/F97D/ins97aV/T98P/F99L/C122S/G151N/Q175L/Q192G (enzyme)
# chain: VVGGTDADEGEWPWQVSLHALGQGHTCGASLISPNWLVSAAHCYIDWRGHRYSDPTQWTAFLGLHDQSQRSAPGVQERRLKRIISHPFFNDDVPLDYDIALLELEKPAEYSSMVRPISLPDASHVFPAGKAIWVTGWGHTQYGGTNALILQKGEIRVINQTTCENLLPQLITPRMMCVGFLSGGVDSCGGDSGGPLSSVEADGRIFQAGVVSWGDGCAQRNKPGVYTRLPLFRDWIKENTGV
# B10: Q38H/I41S/D60bT/F60eS/Y60gW/D96F/F97Y/ins97aD/T98G/F99L/C122S/G151H/Q175L/Q192D (enzyme)
# chain: VVGGTDADEGEWPWQVSLHALGHGHSCGASLISPNWLVSAAHCYIDTRGSRWSDPTQWTAFLGLHDQSQRSAPGVQERRLKRIISHPFFNFYDGLDYDIALLELEKPAEYSSMVRPISLPDASHVFPAGKAIWVTGWGHTQYGGTHALILQKGEIRVINQTTCENLLPQLITPRMMCVGFLSGGVDSCDGDSGGPLSSVEADGRIFQAGVVSWGDGCAQRNKPGVYTRLPLFRDWIKENTGV
# B11: Q38R/I41S/D60bY/F60eD/ins97aV/F97D/T98P/F99L/C122S/G151N/Q175M/Q192A (enzyme)
# chain: VVGGTDADEGEWPWQVSLHALGRGHSCGASLISPNWLVSAAHCYIDYRGDRYSDPTQWTAFLGLHDQSQRSAPGVQERRLKRIISHPFFNDDVPLDYDIALLELEKPAEYSSMVRPISLPDASHVFPAGKAIWVTGWGHTQYGGTNALILQKGEIRVINQTTCENLLPQMITPRMMCVGFLSGGVDSCAGDSGGPLSSVEADGRIFQAGVVSWGDGCAQRNKPGVYTRLPLFRDWIKENTGV
# B12: Q38H/I41S/D60bT/F60eS/Y60gW/ins97aV/T98P/F99L/C122S/G151H/Q175L/Q192E (enzyme)
# chain: VVGGTDADEGEWPWQVSLHALGHGHSCGASLISPNWLVSAAHCYIDTRGSRWSDPTQWTAFLGLHDQSQRSAPGVQERRLKRIISHPFFNDFVPLDYDIALLELEKPAEYSSMVRPISLPDASHVFPAGKAIWVTGWGHTQYGGTHALILQKGEIRVINQTTCENLLPQLITPRMMCVGFLSGGVDSCEGDSGGPLSSVEADGRIFQAGVVSWGDGCAQRNKPGVYTRLPLFRDWIKENTGV
# B13: Modified MTSP-1 protease domain Q38H/I41S/D60bT/F60eS/Y60gW/F97D/ins97aV/T98P/F99L/C122S/G151H/Q175L/Q192E (enzyme)
# chain: VVGGTDADEGEWPWQVSLHALGHGHSCGASLISPNWLVSAAHCYIDTRGSRWSDPTQWTAFLGLHDQSQRSAPGVQERRLKRIISHPFFNDDVPLDYDIALLELEKPAEYSSMVRPISLPDASHVFPAGKAIWVTGWGHTQYGGTHALILQKGEIRVINQTTCENLLPQLITPRMMCVGFLSGGVDSCEGDSGGPLSSVEADGRIFQAGVVSWGDGCAQRNKPGVYTRLPLFRDWIKENTGV
# B14: Modified MTSP-1 protease domain Q38H/I41S/D60bT/F60eS/Y60gW/D96K/F97D/ins97aA/T98P/F99L/C122S/G151H/Q175L/Q192D (enzyme)
# chain: VVGGTDADEGEWPWQVSLHALGHGHSCGASLISPNWLVSAAHCYIDTRGSRWSDPTQWTAFLGLHDQSQRSAPGVQERRLKRIISHPFFNKDAPLDYDIALLELEKPAEYSSMVRPISLPDASHVFPAGKAIWVTGWGHTQYGGTHALILQKGEIRVINQTTCENLLPQLITPRMMCVGFLSGGVDSCDGDSGGPLSSVEADGRIFQAGVVSWGDGCAQRNKPGVYTRLPLFRDWIKENTGV
# B15: Modified MTSP-1 protease domain Q38H/I41A/D60bV/F60eR/Y60gW/D96P/F97W/ins97aN/T98G/F99L/C122S/G151N/Q175L/Q192E (enzyme)
# chain: VVGGTDADEGEWPWQVSLHALGHGHACGASLISPNWLVSAAHCYIDVRGRRWSDPTQWTAFLGLHDQSQRSAPGVQERRLKRIISHPFFNPWNGLDYDIALLELEKPAEYSSMVRPISLPDASHVFPAGKAIWVTGWGHTQYGGTNALILQKGEIRVINQTTCENLLPQLITPRMMCVGFLSGGVDSCEGDSGGPLSSVEADGRIFQAGVVSWGDGCAQRNKPGVYTRLPLFRDWIKENTGV
# B16: Modified MTSP-1 protease domain Q38H/I41S/D60bT/F60eS/Y60gW/F97D/ins97aV/T98P/F99L/C122S/G151N/Q175L/Q192D (enzyme)
# chain: VVGGTDADEGEWPWQVSLHALGHGHSCGASLISPNWLVSAAHCYIDTRGSRWSDPTQWTAFLGLHDQSQRSAPGVQERRLKRIISHPFFNDDVPLDYDIALLELEKPAEYSSMVRPISLPDASHVFPAGKAIWVTGWGHTQYGGTNALILQKGEIRVINQTTCENLLPQLITPRMMCVGFLSGGVDSCDGDSGGPLSSVEADGRIFQAGVVSWGDGCAQRNKPGVYTRLPLFRDWIKENTGV
# B17: Modified MTSP-1 protease domain Q38H/I41A/D60bT/F60eK/Y60gW/F97T/ins97aE/T98G/F99L/C122S/G151H/Q175L/Q192D (enzyme)
# chain: VVGGTDADEGEWPWQVSLHALGHGHACGASLISPNWLVSAAHCYIDTRGKRWSDPTQWTAFLGLHDQSQRSAPGVQERRLKRIISHPFFNDTEGLDYDIALLELEKPAEYSSMVRPISLPDASHVFPAGKAIWVTGWGHTQYGGTHALILQKGEIRVINQTTCENLLPQLITPRMMCVGFLSGGVDSCDGDSGGPLSSVEADGRIFQAGVVSWGDGCAQRNKPGVYTRLPLFRDWIKENTGV
# B18: Modified MTSP-1 protease domain Q38H/I41A/D60bV/F60eR/Y60gW/F97T/ins97aE/T98G/F99L/C122S/G151H/Q175L/Q192D (enzyme)
# chain: VVGGTDADEGEWPWQVSLHALGHGHACGASLISPNWLVSAAHCYIDVRGRRWSDPTQWTAFLGLHDQSQRSAPGVQERRLKRIISHPFFNDTEGLDYDIALLELEKPAEYSSMVRPISLPDASHVFPAGKAIWVTGWGHTQYGGTHALILQKGEIRVINQTTCENLLPQLITPRMMCVGFLSGGVDSCDGDSGGPLSSVEADGRIFQAGVVSWGDGCAQRNKPGVYTRLPLFRDWIKENTGV
# B19: Modified MTSP-1 protease domain Q38H/I41S/D60bT/F60eS/Y60gW/F97D/ins97aV/T98P/F99L/C122S/G151H/Q175L/Q192D (enzyme)
# chain: VVGGTDADEGEWPWQVSLHALGHGHSCGASLISPNWLVSAAHCYIDTRGSRWSDPTQWTAFLGLHDQSQRSAPGVQERRLKRIISHPFFNDDVPLDYDIALLELEKPAEYSSMVRPISLPDASHVFPAGKAIWVTGWGHTQYGGTHALILQKGEIRVINQTTCENLLPQLITPRMMCVGFLSGGVDSCDGDSGGPLSSVEADGRIFQAGVVSWGDGCAQRNKPGVYTRLPLFRDWIKENTGV
# B20: Modified MTSP-1 protease domain Q38H/I41A/D60bV/F60eR/Y60gW/D96I/F97Y/ins97aN/T98G/F99L/C122S/G151N/Q175L/Q192D (enzyme)
# chain: VVGGTDADEGEWPWQVSLHALGHGHACGASLISPNWLVSAAHCYIDVRGRRWSDPTQWTAFLGLHDQSQRSAPGVQERRLKRIISHPFFNIYNGLDYDIALLELEKPAEYSSMVRPISLPDASHVFPAGKAIWVTGWGHTQYGGTNALILQKGEIRVINQTTCENLLPQLITPRMMCVGFLSGGVDSCDGDSGGPLSSVEADGRIFQAGVVSWGDGCAQRNKPGVYTRLPLFRDWIKENTGV
# Target: human complement protein C3 (human) (UniProt P01024)
# Test: cell-based or functional assay
# Sequence of human complement protein C3 (human) (P01024 23-667, chain 1 of 2): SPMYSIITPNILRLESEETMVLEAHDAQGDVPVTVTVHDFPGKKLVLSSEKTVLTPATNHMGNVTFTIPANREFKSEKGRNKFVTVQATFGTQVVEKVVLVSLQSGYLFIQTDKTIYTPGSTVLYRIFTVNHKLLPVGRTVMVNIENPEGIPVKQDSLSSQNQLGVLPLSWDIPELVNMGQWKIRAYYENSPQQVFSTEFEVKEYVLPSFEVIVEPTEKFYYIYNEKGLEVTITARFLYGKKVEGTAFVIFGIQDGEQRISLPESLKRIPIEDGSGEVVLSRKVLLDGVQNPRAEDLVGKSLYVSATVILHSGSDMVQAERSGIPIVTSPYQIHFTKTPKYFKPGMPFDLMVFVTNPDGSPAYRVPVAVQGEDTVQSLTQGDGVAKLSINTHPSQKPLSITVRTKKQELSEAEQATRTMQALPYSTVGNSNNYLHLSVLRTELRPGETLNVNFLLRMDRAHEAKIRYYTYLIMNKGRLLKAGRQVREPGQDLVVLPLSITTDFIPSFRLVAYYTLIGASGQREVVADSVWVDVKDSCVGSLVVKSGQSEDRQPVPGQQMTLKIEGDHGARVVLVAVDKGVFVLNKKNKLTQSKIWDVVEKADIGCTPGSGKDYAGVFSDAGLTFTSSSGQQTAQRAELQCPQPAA
# Sequence of human complement protein C3 (human) (P01024 672-1663, chain 2 of 2): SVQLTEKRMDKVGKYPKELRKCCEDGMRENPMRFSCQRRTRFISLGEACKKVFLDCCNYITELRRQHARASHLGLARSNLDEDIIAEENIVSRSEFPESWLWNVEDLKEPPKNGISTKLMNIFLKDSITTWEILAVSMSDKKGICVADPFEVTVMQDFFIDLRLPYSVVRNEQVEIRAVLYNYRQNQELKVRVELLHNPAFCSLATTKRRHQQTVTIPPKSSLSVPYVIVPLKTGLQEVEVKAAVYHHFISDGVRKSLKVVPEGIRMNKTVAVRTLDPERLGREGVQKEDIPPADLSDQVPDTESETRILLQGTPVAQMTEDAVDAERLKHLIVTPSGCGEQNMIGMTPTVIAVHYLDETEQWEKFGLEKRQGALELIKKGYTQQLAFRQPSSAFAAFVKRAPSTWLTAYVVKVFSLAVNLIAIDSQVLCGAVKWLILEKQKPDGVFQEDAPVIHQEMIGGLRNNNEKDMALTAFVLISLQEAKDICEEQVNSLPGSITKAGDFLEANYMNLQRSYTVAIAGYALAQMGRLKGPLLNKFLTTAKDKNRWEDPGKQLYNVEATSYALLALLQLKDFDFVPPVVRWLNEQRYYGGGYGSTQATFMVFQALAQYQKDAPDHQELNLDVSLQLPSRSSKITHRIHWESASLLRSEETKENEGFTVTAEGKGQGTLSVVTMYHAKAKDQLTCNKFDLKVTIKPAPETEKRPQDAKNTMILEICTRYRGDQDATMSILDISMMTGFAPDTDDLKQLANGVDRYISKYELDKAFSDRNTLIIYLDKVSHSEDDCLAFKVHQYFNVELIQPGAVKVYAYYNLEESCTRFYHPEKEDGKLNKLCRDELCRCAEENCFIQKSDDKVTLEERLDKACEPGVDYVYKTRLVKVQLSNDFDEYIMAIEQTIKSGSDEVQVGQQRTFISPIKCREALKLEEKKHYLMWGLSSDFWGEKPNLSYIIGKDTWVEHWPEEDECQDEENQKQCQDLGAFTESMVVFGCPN
row,Binder,"EC50 (nM), cleavage of purified hC3 in vitro [nM]"
1,B1,3.19
2,B2,3.72
3,B3,3.27
4,B4,3.72
5,B5,3.76
6,B6,3.14
7,B7,4.53
8,B8,5.92
9,B9,3.1
10,B10,3.13
11,B11,3.22
12,B12,3.19

# Target: proteinase-activated receptor 2 (PAR-2) (UniProt P55085)
# Test: cell-based or functional assay
# Sequence of proteinase-activated receptor 2 (PAR-2) (P55085 37-397 limits assumed): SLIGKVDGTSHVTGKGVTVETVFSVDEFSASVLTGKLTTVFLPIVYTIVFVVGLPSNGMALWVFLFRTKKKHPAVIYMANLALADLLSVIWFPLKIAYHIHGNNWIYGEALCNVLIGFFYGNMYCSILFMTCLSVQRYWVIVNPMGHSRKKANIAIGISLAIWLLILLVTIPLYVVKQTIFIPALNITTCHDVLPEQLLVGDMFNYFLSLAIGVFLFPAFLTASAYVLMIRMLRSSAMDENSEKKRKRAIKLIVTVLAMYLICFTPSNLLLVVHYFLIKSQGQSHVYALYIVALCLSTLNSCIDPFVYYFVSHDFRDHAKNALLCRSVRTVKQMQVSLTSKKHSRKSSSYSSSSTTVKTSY
row,Binder,"PAR-2 cell based assay ED50 and SKGR/SL kcat/Km, against wild-type MTSP-1 protease domain with C122S [fold]"
1,B13,> 30
2,B14,> 30
3,B15,> 30
4,B16,> 30
5,B17,> 30
6,B18,> 30
7,B19,> 30
8,B20,> 30

# Reference: patent US20240018502A1
